Results taken from publication PMC3887093.

B1: DBP-RII with C-terminally fused GFP, wild type, on the surface of HEK293T cells [Plasmodium vivax] / Duffy antigen/receptor for chemokines (DARC) on human red blood cells [human (endogenous in RBCs)] (parent)
chain 1: ASNTVMKNCNYKRKRRERDWDCNTKKDVCIPDRRYQLCMKELTNLVNNTDTNFHRDITFRKLYLKRKLIYDAAVEGDLLLKLNNYRYNKDFCKDIRWSLGDFGDIIMGTDMEGIGYSKVVENNLRSIFGTDEKAQQRRKQWWNESKAQIWTAMMYSVKKRLKGNFIWICKLNVAVNIEPQIYRWIREWGRDYVSELPTEVQKLKEKCDGKINYTDKKVCKVPPCQNACKSYDQWITRKKNQWDVLSNKFISVKNAEKVQTAGIVTPYDILKQELDEFNEVAFENEINKRDGAYIELCVCSVEEAKKNTQEVVTNVDN
chain 2: MGNCLHRAELSPSTENSSQLDFEDVWNSSYGVNDSFPDGDYGANLEAAAPCHSCNLLDDSALPFFILTSVLGILASSTVLFMLFRPLFRWQLCPGWPVLAQLAVGSALFSIVVPVLAPGLGSTRSSALCSLGYCVWYGSAFAQALLLGCHASLGHRLGAGQVPGLTLGLTVGIWGVAALLTLPVTLASGASGGLCTLIYSTELKALQATHTVACLAIFVLLPLGLFGAKGLKKALGMGPGPWMNILWAWFIFWWPHGVVLGLDFLVRSKLLLLSTCLAQQALDLLLNLAEALAILHCVATPLLLALFCHQATRTLLPSLPLPEGWSSHLDTLGSKS

Variants of: B1
Assay: red blood cell rosetting (RBC binding) assay with DBP-RII-GFP expressed on HEK293 cells
Conditions: parent: 100, read off a plot

Row | Variant | percent of parent [% Binding]
1 | chain 1 ASNTVMKNCNYKRKRRERDWDCNTKKDVCIPDRRYQLCMKELTNLVNNTDTNFHRDITFRKLYLKRKLIYDALVEGDLLLKLNNYRYNKDFCKDIRWSLGDFGDIIMGTDMEGIGYSKVVENNLRSIFGTDEKAQQRRKQWWNESKAQIWTAMMYSVKKRLKGNFIWICKLNVAVNIEPQIYRWIREWGRDYVSELPTEVQKLKEKCDGKINYTDKKVCKVPPCQNACKSYDQWITRKKNQWDVLSNKFISVKNAEKVQTAGIVTPYDILKQELDEFNEVAFENEINKRDGAYIELCVCSVEEAKKNTQEVVTNVDN [chain 1 A73L] | 0
2 | chain 1 ASNTVMKNCNYKRKRRERDWDCNTKKDVCIPDRRYQLCMKELTNLVNNTDTNFHRDIWFRKLYLKRKLIYDAAVEGDLLLKLNNYRYNKDFCKDIRWSLGDFGDIIMGTDMEGIGYSKVVENNLRSIFGTDEKAQQRRKQWWNESKAQIWTAMMYSVKKRLKGNFIWICKLNVAVNIEPQIYRWIREWGRDYVSELPTEVQKLKEKCDGKINYTDKKVCKVPPCQNACKSYDQWITRKKNQWDVLSNKFISVKNAEKVQTAGIVTPYDILKQELDEFNEVAFENEINKRDGAYIELCVCSVEEAKKNTQEVVTNVDN [chain 1 T58W] | 55
3 | chain 1 ASNTVMKNCNYKRKRRERDWDCNTKKDVCIPDRRYQLCMKELTNLVNNTDTNFHRDITFRKLYLKRKLIYDAAVEGDLLLKLNNYRYNKDFCKDIRWSLGDFGDIIMGTDMEGIGYSKVVENNLRSIFGTDEKAQQRRKQWWNESKAQIWTAMMASVKKRLKGNFIWICKLNVAVNIEPQIYRWIREWGRDYVSELPTEVQKLKEKCDGKINYTDKKVCKVPPCQNACKSYDQWITRKKNQWDVLSNKFISVKNAEKVQTAGIVTPYDILKQELDEFNEVAFENEINKRDGAYIELCVCSVEEAKKNTQEVVTNVDN [chain 1 Y155A] | 0
4 | chain 1 ASNTVMKNCNYKRKRRERDWDCNTKKDVCIPDRRYQLCMKELTNLVNNTDTNFHRDITFRKLYLKRKLIYDAAVEGDLLLKLNNYRYNKDFCKDIRWSLGDFGDIIMGTDMEGIGYSKVVENNLRSIFGTDEKAQQRRKQWWNESKAQIWTAMMLSVKKRLKGNFIWICKLNVAVNIEPQIYRWIREWGRDYVSELPTEVQKLKEKCDGKINYTDKKVCKVPPCQNACKSYDQWITRKKNQWDVLSNKFISVKNAEKVQTAGIVTPYDILKQELDEFNEVAFENEINKRDGAYIELCVCSVEEAKKNTQEVVTNVDN [chain 1 Y155L] | 0
5 | chain 1 ASNTVMKNCNYKRKRRERDWDCNTKKDVCIPDRRYQLCMKELTNLVNNTDTNFHRDITFRKLYLKRKLIYDAAVEGDLLLKLNNYRYNKDFCKDIRWSLGDFGDIIMGTDMEGIGYSKVVENNLRSIFGTDEKAQQRRKQWWNESKADIWTAMMYSVKKRLKGNFIWICKLNVAVNIEPQIYRWIREWGRDYVSELPTEVQKLKEKCDGKINYTDKKVCKVPPCQNACKSYDQWITRKKNQWDVLSNKFISVKNAEKVQTAGIVTPYDILKQELDEFNEVAFENEINKRDGAYIELCVCSVEEAKKNTQEVVTNVDN [chain 1 Q148D] | 18
6 | chain 1 ASNTVMKNCNYKRKRRERDWDCNTKKDVCIPDRRYQLCMKELTNLVNNTDTNFHRDITFRKLYLKRKLIYDAAVEGDLLLKLNNYRYNKDFCKDIRWSLGDFGDIIMGTDMEGIGYSKVVENNLRSIFGTDEKAQQRRKQWWNESKAYIWTAMMYSVKKRLKGNFIWICKLNVAVNIEPQIYRWIREWGRDYVSELPTEVQKLKEKCDGKINYTDKKVCKVPPCQNACKSYDQWITRKKNQWDVLSNKFISVKNAEKVQTAGIVTPYDILKQELDEFNEVAFENEINKRDGAYIELCVCSVEEAKKNTQEVVTNVDN [chain 1 Q148Y] | 66
7 | chain 1 ASNTVMKNCNYKRKRRERDWDCNTKKDVCIPDRRYQLCMKELTNLVNNTDTNFHRWITFRKLYLKRKLIYDAAVEGDLLLKLNNYRYNKDFCKDIRWSLGDFGDIIMGTDMEGIGYSKVVENNLRSIFGTDEKAQQRRKQWWNESKAQIWTAMMYSVKKRLKGNFIWICKLNVAVNIEPQIYRWIREWGRDYVSELPTEVQKLKEKCDGKINYTDKKVCKVPPCQNACKSYDQWITRKKNQWDVLSNKFISVKNAEKVQTAGIVTPYDILKQELDEFNEVAFENEINKRDGAYIELCVCSVEEAKKNTQEVVTNVDN [chain 1 D56W] | 59
8 | chain 1 ASNTVMKNCNYKRKRRERDWDCNTKKDVCIPDRRYQLCMKELTNLVNNTDTNFHRRITFRKLYLKRKLIYDAAVEGDLLLKLNNYRYNKDFCKDIRWSLGDFGDIIMGTDMEGIGYSKVVENNLRSIFGTDEKAQQRRKQWWNESKAQIWTAMMYSVKKRLKGNFIWICKLNVAVNIEPQIYRWIREWGRDYVSELPTEVQKLKEKCDGKINYTDKKVCKVPPCQNACKSYDQWITRKKNQWDVLSNKFISVKNAEKVQTAGIVTPYDILKQELDEFNEVAFENEINKRDGAYIELCVCSVEEAKKNTQEVVTNVDN [chain 1 D56R] | 42
9 | chain 1 ASNTVMKNCNYKRKRRERDWDCNTKKDVCIPDRRYQLCMKELTNLVNNTDTNFHRDRTFRKLYLKRKLIYDAAVEGDLLLKLNNYRYNKDFCKDIRWSLGDFGDIIMGTDMEGIGYSKVVENNLRSIFGTDEKAQQRRKQWWNESKAQIWTAMMYSVKKRLKGNFIWICKLNVAVNIEPQIYRWIREWGRDYVSELPTEVQKLKEKCDGKINYTDKKVCKVPPCQNACKSYDQWITRKKNQWDVLSNKFISVKNAEKVQTAGIVTPYDILKQELDEFNEVAFENEINKRDGAYIELCVCSVEEAKKNTQEVVTNVDN [chain 1 I57R] | 72
